Measured values: the nanobody polyreactivity screen of Harvey et al. (2022)

Assay: yeast display, Sf9 membrane polyspecificity reagent, FACS + sequencing; frameworks hold sequencing errors
How it was run: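 Genes from sorted yeast were amplified by colony PCR, read by MiSeq 2 × 250 sequencing and filtered on CDR length. These cells carried a synthetic nanobody library in Saccharomyces cerevisiae BJ5465 and were sorted by FACS into low and high (top ~1%) gates on anti-HA and streptavidin fluorescence. Polyreactivity is labelled according to the gate of origin.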

Sequence	polyreactivity (PSR sort gate)
QFQLVESGGGLVQAGGSLRLSCAASGSIFYYNAMGCYRQAPGKEREVVAAISWSGGSTYYADSVKGRFTISRDNAKNTVYLQMNSLKPEDTAVYYCNAVGWYTYFYGSRKYNSWGQGTQVTVSS	low polyreactivity
QVQLVESGGGLVQAGGSLRLTCDASGYIFSKYAMGWYRQAPGKERELVAAISGSGGSTSYADSVKGRFTISRDNAKNTVYLQMYCLKPEDTAVYYCIARSRLQRGRMDYWGQGTQVTVSS	high polyreactivity
QVQLVESGGGLVQAGGSLRLSCAASGSTLNIYAMGWYRQAPGKERELVAAISWTDDTTYYADSVKGRFTISRDNAKNTVYLQMNSLKPEDTAVYYCAAEIYSWSDAQQYDYWGQGTQVTVSS	high polyreactivity
QVQLVESGGGIVQAGGSLRLSCAASGRIFYFNAMGWYSQAPGKERELVAAISGSGGDTYYADSVKGRFTISRDNAKNTVYLQMNSLKPEDTAVYFCAKEYIFRLWGQGTQVTVSS	low polyreactivity
QVQLVESGGGLVQAGGSLRLSCAASGRTFVGYVMGWYRQAPGKERELVAAISKIGGRTYYADSVKGRFTISRDNAKNTVYLQMNSLKTEDTAVYYCAAERTKSIKLPRPGSMDYWGQGTQVTVSS	low polyreactivity
QVQLVESGGGLVQAGGSLRLSCAASGNIFNEYAMGWYRQAPGKERELVAAITWSAGSTYYADSVKGRFTISRDNAKNTVYLQMNSLKPEDTAVYYCNAEYTWHRGYDYWGQGTQVTVSS	low polyreactivity
QVQLVESGGGLVQAGGSLRLSCAASGFTFKKYAMGWYRQAPGKERELVASITWSGGSTSYADSVKGRFTISRDNAKNTVYLQMNSRKPEDTAVYYCDAATFVYRLRYNRFDYWGQGTQVTVSS	high polyreactivity
QYQLVESGGCLVQAGGTLRLRCAATGFTFKSYAMGWYRHAHGKAWELVAAISNRGGSTYYADSVKGRFTISRDNAKNSVYLQINSLKPEDNAVYYCATQYYVRPFDYWGQGTQVTVSS	high polyreactivity
QVQLVDSGGGLVQAGGSLRLTCAASGSIFNYYTMGWSRQAPGKERELVAAISSSGGSTYYADSVKGRFTISRDNAKNTVYLQMNSLKPVDTAVYFCNTYPPAHREYESWGQGTQLTVSS	high polyreactivity
QVQLVESGGGLVQAGGSLRLICAASGSTFAYNDMGWYRQAPGKERELVADIRSGGNTNYADSVKGRFTISRDNAKNTVYLQMNSLKPEDTAVYYCATDCYRIDVYHPDYRYDYWGQGTQVTVSS	low polyreactivity
QVQLVESGAGLVQAGGSLRLSCAASGRIFLGNAMGWYRQAPGKERELVAAISRSGVTRYYADSVKGRFTISRYNGKNTVYLQMNSLKPEDTAVYYCAVERYDRFDHYYWVQGTQVTVSS	low polyreactivity
QVQLVESGGGLVQAGGSLRLSCAASGRLFTGNAMGWYRQAPGKERELVADINRTGGSPYYADSVKGRFTISRDNAKNTVYVQLNSLKPVDTAVYDCAAYVPWGWRYGYNYWGQGTQVTVSS	high polyreactivity
QVQLVESGGGLVQAGGSLRLSCAASGFTFGHYVMGWSRQAPGKERELVAAITLSGGGTYYADSVKGRFTISRDNAKNTVYLQMNSLKPEDTAVYYCAAVGGEHAKKTYSRYKVDYWGQGTQVTVSS	low polyreactivity
QVQLVESGGGLVHAGGSLRLSCAASGSTFKYYAMGWYRQAPGKERELVAAISSGNSTYYADSVKGRFTISRDNAKNTVYLQMNSLKPEDTAVYYCAAYWRRDPMDYWGQGTQVTVSS	high polyreactivity
QVQLVESGGGLVQAGGSLRLSCAASGRIFYSNAMGWYRQAPGKERELVAAITRSGGGTYYADSVKGRFTISRDNAKNTVYLQMNSLKPEDTAVYYCARPAFFRSLSTSDDYWGQGTQVTVSS	high polyreactivity
QVQLVESGGGLVQAGGSLRLSCAASGRIFSNYAMGWYRPAPGKESELVAAISRGGGRTFYADSVTGRFTISRDNAKNTVYLQKNSLKPEDTAVYYCATRSYYVKGDYWGQATQVTVSS	high polyreactivity

Sequence	polyreactivity (PSR sort gate)
QVQLVESGGGLVQAGGSLRLSCAASGSTFLYYAMGWYRQAPGKERELVARITTRVGRTYYADSVKGRFTISRDNAKNTVYLQMNSLNPEDTAVYYCAAYPDYSYYYWGQGTQVTVSS	high polyreactivity
QVQLVESGGGLVQAGGSLRLSCAASGGIFDGNAMGWYRQAPGKERELVAAISSGGITKYADSVKGRFTISRDNAKNTVYLQKNSLKPEDTAVYYCAASWYRYRFIRYDYWGQGTQVTVSS	high polyreactivity
QVQLVESGGGLVQAGGSLRLSCAASGRIFYRNAMGWYRQAPGKERELVAAISSSTGSTYYADSVKGRFTISRDNAKNTVYLQMNSLKPEDTAVYYCNTARNRARYYYWGQGTQVTVSS	high polyreactivity
QVQLVESGGGLVQAGGSLRLSCAASGIIFSPYAMGWYRQAPGKERELVAAINFSTGRTYYADSVKGRFTISRDNAKNTVYLQMNSLKPEDTAVYYCAAGKYPYVFRGGYDYWGQGTQVTVSS	low polyreactivity
QVHLVESGGGLVQAGGRLRLSCAASGSIFFRYAMGWYRQAPGKERELVAAINSRGGRTYYADSVKGRFTISRDNAKNTVYLQMNSLKPEDTAVYYCAAKGYWAKGGKTYGGYDYWGQGTQVTGSS	high polyreactivity
QVQLVESGGGLVQAGGSLRLSCAASGRTFDKYAMGWYRQAPGKERELVAAITRSGGSTYYADSVKGRFTISRDNAKNTVYLQMNSLKPEDTAVYYCAKRYWSYRWKYDYWGQGTQVTVSS	high polyreactivity
QVQLVESGGGLVQAGGSLRLSCAASGSIFYNYAMGWYRQAPGKEREFVAAISRSGGSTYYADSVKGRFTISRDNAKNTVYLQMNSLKPEDSAVYYCAASTRYSAFYPYGYWGQGTQVTVSS	high polyreactivity
QVQLVESGGGLVQAGGSLRLSCAASGRTFKYYAMGWYRQAPGKERELVAAITTGGSTHYADSVKGRFTISRDNAKNTVYLQMNSLKPEDTAVYYCAAGPFARYDYWGQGTEVTVSS	low polyreactivity
QVQLVESGGGLVQAGGSLRLSCAASGSIFRWYAMGWYRQAPGKERELVAAITWSASRTYYADSVKGRFTISRDNAKNTVYLQMNSLKPEDTAVYYCAKRGWSSVYFHGGFGYKLYDYWGQGTQVTVSS	low polyreactivity
QVQLVESGGGLVQAGGSLRLSCAASGFILYFKAMGWYRQAHGKERELVAAITSDGGSTYYADSLKGRFTISRDNAKNTVYLQMNSLKPEDTAVYYCAADASTWYTEEYWGQGTQVTVSS	low polyreactivity
QVQLVESGGGLVQAGGSLRLICAASGRIFWSNTMGWYRQAPGKERELVAAISGRGGSTYYADSVKGRFTISRDNAKNTVYLQMNSLKPEDTAVYYCAAKPTRSRKIYEYWGQGTQVTVSS	low polyreactivity
QDQHVESGGGLVQAGGSLRLSCAASGLTYRYNAMGWYRPAPGKERELVAAITSSGGSTYYADSVKGRFTISRDNAKNTVYLQMNSLKPEDTAVYYCAAATNTQESVPMYYWGQGTQVTVSS	low polyreactivity
QEQLVESGGGLVQAGGSLRLSCAASGSTFYANAMGWYRQAPGQERELVAAISWDGGNTYYADSVKGRFTISRDNAKNNVYLQMNSLKPEDTAVYYCARDYYGTVYYYGYDYWGQGTQVTVSS	low polyreactivity
QVQLVESGGGLVQAGGSLRLSCAASGITFYHYAMGWYRQAPGKEREFVASITSSGGSTYYADSVKGRFTISRDNAKNTVYLQMNSLKPDDSAVYYCAARGYNPYGRKVGYLGQGTQVTVSS	high polyreactivity
QVQLVESGGGLVQAGGSLRLSCAASGRTFQRYALGWYRQAPGKERELVAAITSRGGSTYYADSVKGRFTISRDNAKNTDYLQMNSLIPEETAVYYCSARSRRTHSEPQSEMDYWGQGTQVTVSS	high polyreactivity
QVQLVESGGGLVQAGGSLRLSCAASGSIRYYAMGWYRQAPGKEREFVAAISRRGSSTNYADSVKGRFTISRDNAKNTVYLQMNRLKPEDTAVYYCARGLDVISYGYDYWGQGTQVTVSS	high polyreactivity
